Values of other authors in publication PMC9784434.

Target: NKG2D (Homo sapiens) (UniProt P26718)
Chain of UniProt P26718 (P26718 whole entry): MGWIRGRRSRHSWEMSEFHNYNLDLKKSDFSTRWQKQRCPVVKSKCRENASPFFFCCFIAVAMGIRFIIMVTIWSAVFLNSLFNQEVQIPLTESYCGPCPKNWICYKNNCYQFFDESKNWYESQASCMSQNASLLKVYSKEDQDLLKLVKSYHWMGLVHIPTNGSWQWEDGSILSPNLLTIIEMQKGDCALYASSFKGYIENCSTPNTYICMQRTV

Kd: 800 nM
Substance: MICB (from UniProt Q29980)
